From US20250361322A1 (ICONIC THERAPEUTICS, published 2025)
Changes are numbered by the printed parent chain.

B1: 1G (antibody, human IgG1, V domains shown)
VH: EVQLLESGGGLVQPGGSLRLSCAASGFTFSSYAMAWVRQAPGKGLEWVSAISGSGGLTYYADSVKGRFTISRDNSKNTLYLQMNSLRAEDTAVYYCAKAPYGYYMDVWGKGTTVTVSS
VL: not shown
notes: Human IgG1; also called antibody designated 1G
B2: 54E (antibody, human IgG1, V domains shown)
VH: QVQLVQSGAEVKKPGASVKVSCKASGYTFANYYMHWVRQAPGQGLEWMGIINPSGGITVYAQKFQGRVTMTRDTSTSTVYMELSSLRSEDTAVYYCARGGSKVAALAFDIWGQGTMVTVSS
VL: DIQMTQSPSSLSASVGDRVTITCQASQDISNSLNWYQQKPGKAPKLLIYDASNLETGVPSRFSGSRSGTDFTFTISSLQPEDIATYYCQQYNFHPLTFGGGTKVEIK
notes: Human IgG1; also called antibody designated 54E
B3: 29D (antibody, human IgG1, V domains shown)
VH: QVQLVESGGGVVQPGRSLRLSCAASGFTFHSRGMHWVRQAPGKGLEWVAVITYDGINKYYADSVEGRFTISRDNSKNTLYLQMNSLRAEDTAVYYCARDGVYYGVYDYWGQGTLVTVSS
VL: not shown
notes: Human IgG1; also called antibody designated 29D
B4: 29E (antibody, human IgG1, V domains shown)
VH: B3 VH with H30R, R32Y
VL: not shown
notes: Human IgG1; also called antibody designated 29E
B5: 39A (antibody, human IgG1, V domains shown)
VH: QVQLVQSGAEVKKPGSSVKVSCKASGGTFSSNAIGWVRQAPGQGLEWMGSIIPIIGFANYAQKFQGRVTITADESTSTAYMELSSLRSEDTAVYYCARDSGYYYGASSFGMDVWGQGTTVTVSS
VL: EIVMTQSPATLSVSPGERATLSCRASQSVSSNLAWYQQKPGQAPRLLIYGASTRATGIPARFSGSGSGTEFTLTISSLQSEDFAVYYCEQYNNLPLTFGGGTKVEIK
notes: Human IgG1; also called antibody designated 39A
B6: 1F (antibody, human IgG1, V domains shown)
VH: B1 VH with S31D, A35G, A50T
VL: not shown
notes: Human IgG1; also called antibody designated 1F
B7: 25A (antibody, human IgG1, V domains shown)
VH: QVQLVQSGAEVKKPGASVKVSCKASGYTFDVYGISWVRQAPGQGLEWMGWIAPYNGNTNYAQKLQGRVTMTTDTSTSTAYMELRSLRSDDTAVYYCARDAGTYSPFGYGMDVWGQGTTVTVSS
VL: DIQMTQSPSTLSASVGDRVTITCRASQSISSWLAWYQQKPGKAPKLLIYKASSLESGVPSRFSGSGSGTEFTLTISSLQPDDFATYYCQQFQSLPPFTFGGGTKVEIK
notes: Human IgG1; also called antibody designated 25A; Antibody Clone 25A
B8: anti-TF antibody 54E conjugated to MC-vc-PAB-MMAE (antibody, IgG1, V domains shown)
VH: B2 VH
VL: B2 VL
modifications: MC-vc-PAB-MMAE on cysteines of the partially reduced antibody (chain and positions not stated), DAR 3-4
notes: Antibody-drug conjugate (primary ADC) of the IgG1 antibody; also called 54E ADC
B9: 25A5-T (antibody, human IgG1, V domains shown)
VH: B7 VH with V31A, N55S
VL: B7 VL with Q27E, S31N, S52Y, S56Y, S93K
notes: Human IgG1; also called antibody designated 25A5-T

What follows are binders tested against T1, human Tissue Factor (TF) (human, UniProt P13726 33-295) (assay: cell-based or functional assay).
For B1, the “% FXa at 12.5 nM antibody” value was 55%, the “% FXa at 25 nM antibody” value was 48% and the “% FXa at 50 nM antibody” value was 41%. For the same binder, the “% FXa at 100 nM antibody” value was 41%. B2 was tested, and the “% FXa at 12.5 nM antibody” value was 53%, the “% FXa at 25 nM antibody” value was 44% and the “% FXa at 50 nM antibody” value was 41%. For the same binder, the “% FXa at 100 nM antibody” value was 42%. With B3 the “% FXa at 12.5 nM antibody” value was 85%, the “% FXa at 25 nM antibody” value was 77% and the “% FXa at 50 nM antibody” value was 75%. The “% FXa at 100 nM antibody” value was 75%. In the case of B4, the “% FXa at 12.5 nM antibody” value is reported as 81%, the “% FXa at 25 nM antibody” value is reported as 68% and the “% FXa at 50 nM antibody” value is reported as 63%. The “% FXa at 100 nM antibody” value was 66%.

What follows are binders tested against T1, human Tissue Factor (TF) (assay: flow cytometry, MDA-MB-231 cells; competitor 20 nM FVII-Fc-Alexa488; antibody at 28 nM).
Description: (§1) After another 1 hr incubation on ice, cells were washed, stained with a viability dye, and analyzed by flow cytometry. The Alexa488 fluorescence data from viable cells was summarized using median fluorescence intensity.
In the case of B5, the “% FVIIa” value is reported as 2%. In the case of B6, the “% FVIIa” value is reported as 7%. With B1 the “% FVIIa” value was 7%. In the case of B2, the “% FVIIa” value is reported as 3%. For B3, the “% FVIIa” value was 4%. With B4 the “% FVIIa” value was 3%.

The binders below were run against T1, human Tissue Factor (TF) (assay: flow cytometry, MDA-MB-231 cells; competitor 20 nM FVII-Fc-Alexa488; antibody at 83 nM).
Description: as §1
In the case of B7, the “% FVIIa” value is reported as 97%. For B5, the “% FVIIa” value was 2%. B6 was tested, and the “% FVIIa” value was 7%. In the case of B1, the “% FVIIa” value is reported as 7%. In the case of B2, the “% FVIIa” value is reported as 3%. For B3, the “% FVIIa” value was 3%. B4 was tested, and the “% FVIIa” value was 2%.

The binders below were run against T2, human Tissue Factor (hTF) (human, UniProt P13726 33-295) (assay: cell-based or functional assay).
With B8 the “IC50, cell viability of A431 cells, Primary ADC, Continuous (FIG. 20A)” value was 0.07 nM.

Each binder was assayed against T1, human Tissue Factor (TF) (assay: flow cytometry, A431 cells; antibody at 100 nM; competitor 20 nM 25A-Alexa488).
Description: as §1
B7 was tested, and the “% 25A binding” value was 3%. For B6, the “% 25A binding” value was 95%. In the case of B1, the “% 25A binding” value is reported as 75%. For B2, the “% 25A binding” value was 99%. With B3 the “% 25A binding” value was 70%. With B4 the “% 25A binding” value was 96%.

The binders below were run against T1, human Tissue Factor (TF) (assay: flow cytometry, MDA-MB-231 cells; competitor 20 nM FVII-Fc-Alexa488; antibody at 9.25 nM).
Description: as §1
For B7, the “% FVIIa” value was 100%. With B5 the “% FVIIa” value was 2%. With B6 the “% FVIIa” value was 7%. With B1 the “% FVIIa” value was 7%. In the case of B2, the “% FVIIa” value is reported as 11%. For B3, the “% FVIIa” value was 6%. For B4, the “% FVIIa” value was 5%.

Target: T1, human Tissue Factor (TF)
Assay: cell-based or functional assay
Remark: another data set of the same source
For B7, the “% IL8 at 2.56 nM antibody” value was 43%, the “% IL8 at 6.4 nM antibody” value was 11% and the “% IL8 at 16 nM antibody” value was 10%. For the same binder, the “% IL8 at 40 nM antibody” value was 8% and the “% IL8 at 100 nM antibody” value was 9%. In the case of B5, the “% IL8 at 2.56 nM antibody” value is reported as 52%, the “% IL8 at 6.4 nM antibody” value is reported as 6% and the “% IL8 at 16 nM antibody” value is reported as 2%. For the same binder, the “% IL8 at 40 nM antibody” value was 2% and the “% IL8 at 100 nM antibody” value was 3%. With B6 the “% IL8 at 2.56 nM antibody” value was 18%, the “% IL8 at 6.4 nM antibody” value was 3% and the “% IL8 at 16 nM antibody” value was 2%. For the same binder, the “% IL8 at 40 nM antibody” value was 2% and the “% IL8 at 100 nM antibody” value was 2%. In the case of B1, the “% IL8 at 2.56 nM antibody” value is reported as 26%, the “% IL8 at 6.4 nM antibody” value is reported as 4% and the “% IL8 at 16 nM antibody” value is reported as 3%. The “% IL8 at 40 nM antibody” value was 2% and the “% IL8 at 100 nM antibody” value was 2%. B2 was tested, and the “% IL8 at 2.56 nM antibody” value was 48%, the “% IL8 at 6.4 nM antibody” value was 8% and the “% IL8 at 16 nM antibody” value was 3%. The “% IL8 at 40 nM antibody” value was 2% and the “% IL8 at 100 nM antibody” value was 2%. With B3 the “% IL8 at 2.56 nM antibody” value was 27%, the “% IL8 at 6.4 nM antibody” value was 6% and the “% IL8 at 16 nM antibody” value was 2%. The “% IL8 at 40 nM antibody” value was 2% and the “% IL8 at 100 nM antibody” value was 1%. In the case of B4, the “% IL8 at 2.56 nM antibody” value is reported as 33%, the “% IL8 at 6.4 nM antibody” value is reported as 5% and the “% IL8 at 16 nM antibody” value is reported as 2%. For the same binder, the “% IL8 at 40 nM antibody” value was 2% and the “% IL8 at 100 nM antibody” value was 2%.

These binders were tested against T1, human Tissue Factor (TF) (assay: flow cytometry, MDA-MB-231 cells; competitor 20 nM FVII-Fc-Alexa488; antibody at 250 nM).
Description: as §1
With B7 the “% FVIIa” value was 98%. For B5, the “% FVIIa” value was 2%. In the case of B6, the “% FVIIa” value is reported as 6%. With B1 the “% FVIIa” value was 6%. For B2, the “% FVIIa” value was 2%. For B3, the “% FVIIa” value was 3%. B4 was tested, and the “% FVIIa” value was 2%.

Target: T2, human Tissue Factor (hTF)
Assay: cell-based or functional assay
Remark: another data set of the same source
For B8, the “IC50, cell viability of A431 cells, Primary ADC, 4 hr, followed by washout (FIG. 20B)” value was 0.26 nM and the “IC50, cell viability of A431 cells, Primary ADC, 4 hr, followed by washout, absence of FVIIa (FIG. 21A)” value was 0.2 nM.

These binders were tested against T1, human Tissue Factor (TF) (assay: flow cytometry, A431 cells; antibody at 100 nM; competitor 20 nM 43Ea-Alexa488).
Description: as §1
With B7 the “% 43Ea binding” value was 1%. In the case of B6, the “% 43Ea binding” value is reported as 77%. For B1, the “% 43Ea binding” value was 58%. B2 was tested, and the “% 43Ea binding” value was 96%. For B3, the “% 43Ea binding” value was 64%. B4 was tested, and the “% 43Ea binding” value was 85%.

What follows are binders tested against T3, human Tissue Factor on human TF-positive cells (human, UniProt P13726 33-295) (assay: flow cytometry, titration of the MC-vc-PAB-MMAE ADC on HCT-116 cells (human TF), 4-parameter fit of MFI).
T3 construct: also called hTF; CD142
In the case of B8, the EC50 is reported as 0.33 nM.

Target: T1, human Tissue Factor (TF)
Assay: cell-based or functional assay
Remark: another data set of the same source
In the case of B7, the “% GM-CSF at 2.56 nM antibody” value is reported as 57%, the “% GM-CSF at 6.4 nM antibody” value is reported as 24% and the “% GM-CSF at 16 nM antibody” value is reported as 22%. For the same binder, the “% GM-CSF at 40 nM antibody” value was 19% and the “% GM-CSF at 100 nM antibody” value was 22%. B5 was tested, and the “% GM-CSF at 2.56 nM antibody” value was 42%, the “% GM-CSF at 6.4 nM antibody” value was 8% and the “% GM-CSF at 16 nM antibody” value was 5%. For the same binder, the “% GM-CSF at 40 nM antibody” value was 5% and the “% GM-CSF at 100 nM antibody” value was 7%. In the case of B6, the “% GM-CSF at 2.56 nM antibody” value is reported as 27%, the “% GM-CSF at 6.4 nM antibody” value is reported as 8% and the “% GM-CSF at 16 nM antibody” value is reported as 6%. For the same binder, the “% GM-CSF at 40 nM antibody” value was 6% and the “% GM-CSF at 100 nM antibody” value was 6%. For B1, the “% GM-CSF at 2.56 nM antibody” value was 34%, the “% GM-CSF at 6.4 nM antibody” value was 9% and the “% GM-CSF at 16 nM antibody” value was 7%. The “% GM-CSF at 40 nM antibody” value was 7% and the “% GM-CSF at 100 nM antibody” value was 7%. For B2, the “% GM-CSF at 2.56 nM antibody” value was 38%, the “% GM-CSF at 6.4 nM antibody” value was 10% and the “% GM-CSF at 16 nM antibody” value was 5%. The “% GM-CSF at 40 nM antibody” value was 5% and the “% GM-CSF at 100 nM antibody” value was 5%. In the case of B3, the “% GM-CSF at 2.56 nM antibody” value is reported as 38%, the “% GM-CSF at 6.4 nM antibody” value is reported as 15% and the “% GM-CSF at 16 nM antibody” value is reported as 7%. For the same binder, the “% GM-CSF at 40 nM antibody” value was 6% and the “% GM-CSF at 100 nM antibody” value was 5%. With B4 the “% GM-CSF at 2.56 nM antibody” value was 33%, the “% GM-CSF at 6.4 nM antibody” value was 9% and the “% GM-CSF at 16 nM antibody” value was 5%. The “% GM-CSF at 40 nM antibody” value was 6% and the “% GM-CSF at 100 nM antibody” value was 6%.

Each binder was assayed against T4, rTF (rat TF) construct on HEK293 cells (rat, UniProt P42533 29-252) (assay: flow cytometry (live cell staining), antibody titration 1:3 from 250 nM on HEK293 cells transfected with rTF).
T4 construct: not shown: transmembrane/cytoplasmic anchor of the cell-surface construct
T4 sequence (P42533 29-252 limits assumed): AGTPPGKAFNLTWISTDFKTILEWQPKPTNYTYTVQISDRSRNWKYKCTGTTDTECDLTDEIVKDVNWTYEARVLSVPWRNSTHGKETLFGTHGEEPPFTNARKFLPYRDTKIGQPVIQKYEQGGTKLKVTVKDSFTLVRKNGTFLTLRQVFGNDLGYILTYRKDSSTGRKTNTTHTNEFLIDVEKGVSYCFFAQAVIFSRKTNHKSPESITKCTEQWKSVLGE
B9: no binding (tested: 250 nM).
